# What was measured:
# Experiment in all cases: holdup assay
# Set-up in all cases: key: below the threshold = too weak to quantify, mostly under pKd 3.1 to 4
# GRIP2_3, Q9C0E4 = molecular target: GRIP2_3, Q9C0E4
# NOS1, P29475 = molecular target: NOS1, P29475
# DLG4_1, P78352 = molecular target: DLG4_1, P78352
# LDB3, O75112 = molecular target: LDB3, O75112
# NHERF4_2, Q86UT5 = molecular target: NHERF4_2, Q86UT5
# DLG3_3, Q92796 = molecular target: T1, DLG3_3, Q92796
# T1 sequence (Q92796 374-475, limits assumed, looked up): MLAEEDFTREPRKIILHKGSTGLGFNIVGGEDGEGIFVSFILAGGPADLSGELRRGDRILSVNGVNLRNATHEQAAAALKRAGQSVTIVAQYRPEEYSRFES
# SCRIB_2, Q14160 = molecular target: SCRIB_2, Q14160
# TX1BP3, O14907 = molecular target: T2, TX1BP3, O14907
# T2 sequence (O14907 10-122, limits assumed, looked up): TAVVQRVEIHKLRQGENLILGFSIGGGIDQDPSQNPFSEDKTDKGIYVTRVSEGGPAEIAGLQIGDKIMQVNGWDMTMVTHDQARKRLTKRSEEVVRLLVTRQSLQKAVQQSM
# MPDZ_5, O75970 = molecular target: T3, MPDZ_5, O75970
# T3 sequence (O75970 695-796, limits assumed, looked up): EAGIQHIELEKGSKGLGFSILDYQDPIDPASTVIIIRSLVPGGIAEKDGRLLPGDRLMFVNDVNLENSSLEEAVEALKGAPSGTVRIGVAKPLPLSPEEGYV
# NHERF4_4, Q86UT5 = molecular target: NHERF4_4, Q86UT5
# Inadl_4, Q8NI35 = molecular target: Inadl_4, Q8NI35
# APBA1_1, Q02410 = molecular target: T4, APBA1_1, Q02410
# T4 sequence (Q02410 651-752, limits assumed, looked up): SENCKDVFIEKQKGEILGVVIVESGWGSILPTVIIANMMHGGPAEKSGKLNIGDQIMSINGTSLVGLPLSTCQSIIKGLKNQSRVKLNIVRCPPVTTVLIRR
# MAGI1_1, Q96QZ7 = molecular target: MAGI1_1, Q96QZ7
# NHERF2_2, Q15599 = molecular target: NHERF2_2, Q15599
# GRIP2_5, Q9C0E4 = molecular target: GRIP2_5, Q9C0E4
# PDZD2_2, O15018 = molecular target: T5, PDZD2_2, O15018
# T5 sequence (O15018 329-429, limits assumed, looked up): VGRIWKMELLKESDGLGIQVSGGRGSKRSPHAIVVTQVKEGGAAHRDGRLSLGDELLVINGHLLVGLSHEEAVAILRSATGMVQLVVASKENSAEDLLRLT
# NHERF3_1, Q5T2W1 = molecular target: T6, NHERF3_1, Q5T2W1
# T6 sequence (Q5T2W1 4-100, limits assumed, looked up): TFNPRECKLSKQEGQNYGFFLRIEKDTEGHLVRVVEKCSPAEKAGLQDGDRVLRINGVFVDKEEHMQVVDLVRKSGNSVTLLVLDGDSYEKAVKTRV
# PICK1, Q9NRD5 = molecular target: PICK1, Q9NRD5
# MAGI2_3, Q86UL8 = molecular target: MAGI2_3, Q86UL8
# IL16_1, Q14005 = molecular target: IL16_1, Q14005
# MPDZ_10, O75970 = molecular target: T7, MPDZ_10, O75970
# T7 sequence (O75970 1624-1722, limits assumed, looked up): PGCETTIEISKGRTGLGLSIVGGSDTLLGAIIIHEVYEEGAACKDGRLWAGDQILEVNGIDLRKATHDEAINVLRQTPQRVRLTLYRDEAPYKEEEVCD
# MAST2, Q6P0Q8 = molecular target: MAST2, Q6P0Q8
# ARHGAP21, Q5T5U3 = molecular target: T8, ARHGAP21, Q5T5U3
# T8 sequence (Q5T5U3 45-169, limits assumed, looked up): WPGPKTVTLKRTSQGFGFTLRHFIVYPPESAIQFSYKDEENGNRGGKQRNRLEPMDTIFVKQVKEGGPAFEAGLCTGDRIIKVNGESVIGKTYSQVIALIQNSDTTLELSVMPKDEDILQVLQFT
# APBA1_2, Q02410 = molecular target: T9, APBA1_2, Q02410
# T9 sequence (Q02410 742-832, limits assumed, looked up): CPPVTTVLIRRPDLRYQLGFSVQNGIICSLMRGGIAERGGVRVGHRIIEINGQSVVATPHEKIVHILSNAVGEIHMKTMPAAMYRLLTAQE
# PARD3_3, Q8TEW0 = molecular target: PARD3_3, Q8TEW0
# GRID2IP_2, A4D2P6 = molecular target: GRID2IP_2, A4D2P6
# MPP7, Q5T2T1 = molecular target: T10, MPP7, Q5T2T1
# T10 sequence (Q5T2T1 134-230, limits assumed, looked up): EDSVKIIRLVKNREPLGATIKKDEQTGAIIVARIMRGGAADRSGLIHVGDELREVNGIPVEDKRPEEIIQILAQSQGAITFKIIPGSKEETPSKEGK
# [1] = plain residues with an end cap or a label only (N-terminal biotin on a linker: ahx)
# [2] = plain residues with an end cap or a label only (N-terminal biotin on a linker: ado-ado)
# [3] = plain residues with an end cap or a label only (N-terminal biotin on a linker: (peg)3)
# Chain of IL16_1, Q14005 (Q14005 210-306): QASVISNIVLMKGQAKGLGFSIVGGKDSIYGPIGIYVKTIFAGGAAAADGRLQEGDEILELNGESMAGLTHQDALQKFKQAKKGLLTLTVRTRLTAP
# Chain of Inadl_4, Q8NI35 (Q8NI35 547-651): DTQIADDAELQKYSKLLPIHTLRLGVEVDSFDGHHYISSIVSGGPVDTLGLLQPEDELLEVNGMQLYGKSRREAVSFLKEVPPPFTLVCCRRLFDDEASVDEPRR
# Chain of MAGI1_1, Q96QZ7 (Q96QZ7 1-106): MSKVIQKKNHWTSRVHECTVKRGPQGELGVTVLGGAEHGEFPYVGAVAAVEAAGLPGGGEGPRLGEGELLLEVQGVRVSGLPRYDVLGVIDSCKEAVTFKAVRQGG
# Chain of NOS1, P29475 (P29475 9-101): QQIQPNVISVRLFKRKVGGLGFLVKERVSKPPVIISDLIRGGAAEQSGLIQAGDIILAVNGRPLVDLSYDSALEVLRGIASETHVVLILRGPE
# Chain of GRIP2_5, Q9C0E4 (Q9C0E4 544-642): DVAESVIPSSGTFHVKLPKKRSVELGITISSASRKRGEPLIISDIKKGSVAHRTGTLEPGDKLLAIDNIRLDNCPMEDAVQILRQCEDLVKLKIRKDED
# Chain of NHERF4_2, Q86UT5 (Q86UT5 220-308): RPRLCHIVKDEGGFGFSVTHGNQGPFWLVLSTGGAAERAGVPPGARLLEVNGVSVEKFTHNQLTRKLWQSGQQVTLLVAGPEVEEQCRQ
# Chain of DLG4_1, P78352 (P78352 62-152): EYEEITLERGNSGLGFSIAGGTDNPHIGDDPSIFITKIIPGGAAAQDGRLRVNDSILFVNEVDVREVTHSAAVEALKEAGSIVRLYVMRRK
# Chain of LDB3, O75112 (O75112 1-94): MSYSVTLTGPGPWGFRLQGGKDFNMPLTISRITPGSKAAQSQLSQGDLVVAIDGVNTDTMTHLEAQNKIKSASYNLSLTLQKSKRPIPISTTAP
# Chain of MAST2, Q6P0Q8 (Q6P0Q8 1099-1202): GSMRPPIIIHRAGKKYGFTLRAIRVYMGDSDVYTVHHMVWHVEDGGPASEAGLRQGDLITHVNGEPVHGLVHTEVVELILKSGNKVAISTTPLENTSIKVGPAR
# Chain of MAGI2_3, Q86UL8 (Q86UL8 600-682): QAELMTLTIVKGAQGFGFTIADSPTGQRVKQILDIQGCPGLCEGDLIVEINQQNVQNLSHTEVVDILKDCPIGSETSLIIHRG
# Chain of SCRIB_2, Q14160 (Q14160 857-960): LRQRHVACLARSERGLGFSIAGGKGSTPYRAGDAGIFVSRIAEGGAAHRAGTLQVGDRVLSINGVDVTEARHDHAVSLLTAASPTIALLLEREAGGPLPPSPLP
# Chain of GRIP2_3, Q9C0E4 (Q9C0E4 238-339): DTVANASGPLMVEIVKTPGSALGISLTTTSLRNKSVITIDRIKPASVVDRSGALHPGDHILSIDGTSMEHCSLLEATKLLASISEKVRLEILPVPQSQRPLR
# Chain of GRID2IP_2, A4D2P6 (A4D2P6 272-370): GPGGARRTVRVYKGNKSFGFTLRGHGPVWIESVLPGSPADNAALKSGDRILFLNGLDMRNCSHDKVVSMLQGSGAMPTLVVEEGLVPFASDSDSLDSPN
# Chain of NHERF2_2, Q15599 (Q15599 142-238): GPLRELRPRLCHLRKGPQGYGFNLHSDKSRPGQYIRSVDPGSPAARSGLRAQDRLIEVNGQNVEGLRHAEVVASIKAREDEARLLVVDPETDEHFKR
# Chain of NHERF4_4, Q86UT5 (Q86UT5 464-550): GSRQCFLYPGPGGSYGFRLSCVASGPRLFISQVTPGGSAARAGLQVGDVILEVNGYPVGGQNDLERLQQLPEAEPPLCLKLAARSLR
# Chain of PICK1, Q9NRD5 (Q9NRD5 17-115): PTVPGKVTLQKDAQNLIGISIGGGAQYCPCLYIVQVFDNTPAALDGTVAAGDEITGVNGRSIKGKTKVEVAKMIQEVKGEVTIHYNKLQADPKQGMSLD
# Chain of PARD3_3, Q8TEW0 (Q8TEW0 582-685): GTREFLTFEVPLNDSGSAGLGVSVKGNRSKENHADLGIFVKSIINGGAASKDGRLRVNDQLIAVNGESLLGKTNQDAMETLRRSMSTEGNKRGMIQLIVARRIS
binder,measurement,setting,value
"QPRTWLQSPV [RTKN, Q9BST9]",pKd,"GRIP2_3, Q9C0E4; [1]",below the threshold
same,pKd,"NOS1, P29475; [1]",3.6
same,pKd,"DLG4_1, P78352; [1]",4.19
same,pKd,"LDB3, O75112; [1]",below the threshold
same,pKd,"NHERF4_2, Q86UT5; [1]",below the threshold
same,pKd,"DLG3_3, Q92796; [1]",4.41
same,pKd,"SCRIB_2, Q14160; [1]",below the threshold
same,pKd,"TX1BP3, O14907; [1]",6.05
same,pKd,"MPDZ_5, O75970; [1]",below the threshold
same,pKd,"NHERF4_4, Q86UT5; [1]",below the threshold
same,pKd,"Inadl_4, Q8NI35; [1]",below the threshold
same,pKd,"APBA1_1, Q02410; [1]",below the threshold
same,pKd,"MAGI1_1, Q96QZ7; [1]",below the threshold
same,pKd,"NHERF2_2, Q15599; [1]",below the threshold
same,pKd,"GRIP2_5, Q9C0E4; [1]",below the threshold
same,pKd,"PDZD2_2, O15018; [1]",4.71
same,pKd,"NHERF3_1, Q5T2W1; [1]",4.29
same,pKd,"PICK1, Q9NRD5; [1]",below the threshold
same,pKd,"MAGI2_3, Q86UL8; [1]",below the threshold
same,pKd,"IL16_1, Q14005; [1]",3.95
same,pKd,"MPDZ_10, O75970; [1]",3.97
same,pKd,"MAST2, Q6P0Q8; [1]",4.13
same,pKd,"ARHGAP21, Q5T5U3; [1]",below the threshold
same,pKd,"APBA1_2, Q02410; [1]",below the threshold
same,pKd,"PARD3_3, Q8TEW0; [1]",below the threshold
same,pKd,"GRID2IP_2, A4D2P6; [1]",below the threshold
same,pKd,"MPP7, Q5T2T1; [1]",below the threshold
"DFLSTFHIRI [CIB2, O75838]",pKd,"GRIP2_3, Q9C0E4; [2]",below the threshold
same,pKd,"NOS1, P29475; [2]",below the threshold
same,pKd,"DLG4_1, P78352; [2]",below the threshold
same,pKd,"LDB3, O75112; [2]",below the threshold
same,pKd,"NHERF4_2, Q86UT5; [2]",below the threshold
same,pKd,"DLG3_3, Q92796; [2]",below the threshold
same,pKd,"SCRIB_2, Q14160; [2]",below the threshold
same,pKd,"TX1BP3, O14907; [2]",below the threshold
same,pKd,"MPDZ_5, O75970; [2]",below the threshold
same,pKd,"NHERF4_4, Q86UT5; [2]",4.58
same,pKd,"Inadl_4, Q8NI35; [2]",below the threshold
same,pKd,"APBA1_1, Q02410; [2]",4.08
same,pKd,"MAGI1_1, Q96QZ7; [2]",below the threshold
same,pKd,"NHERF2_2, Q15599; [2]",below the threshold
same,pKd,"GRIP2_5, Q9C0E4; [2]",below the threshold
same,pKd,"PDZD2_2, O15018; [2]",3.71
same,pKd,"NHERF3_1, Q5T2W1; [2]",below the threshold
same,pKd,"PICK1, Q9NRD5; [2]",below the threshold
same,pKd,"MAGI2_3, Q86UL8; [2]",below the threshold
same,pKd,"IL16_1, Q14005; [2]",below the threshold
same,pKd,"MPDZ_10, O75970; [2]",below the threshold
same,pKd,"MAST2, Q6P0Q8; [2]",4.68
same,pKd,"ARHGAP21, Q5T5U3; [2]",4.13
same,pKd,"APBA1_2, Q02410; [2]",below the threshold
same,pKd,"PARD3_3, Q8TEW0; [2]",4.28
same,pKd,"GRID2IP_2, A4D2P6; [2]",below the threshold
same,pKd,"MPP7, Q5T2T1; [2]",4.46
"RYEDTTLVEDTVL [WNV-NS5, Q9Q6P4]",pKd,"GRIP2_3, Q9C0E4; [3]",below the threshold
same,pKd,"NOS1, P29475; [3]",3.64
same,pKd,"DLG4_1, P78352; [3]",below the threshold
same,pKd,"LDB3, O75112; [3]",below the threshold
same,pKd,"NHERF4_2, Q86UT5; [3]",below the threshold
same,pKd,"DLG3_3, Q92796; [3]",below the threshold
same,pKd,"SCRIB_2, Q14160; [3]",below the threshold
same,pKd,"TX1BP3, O14907; [3]",below the threshold
same,pKd,"MPDZ_5, O75970; [3]",below the threshold
same,pKd,"NHERF4_4, Q86UT5; [3]",below the threshold
same,pKd,"Inadl_4, Q8NI35; [3]",below the threshold
same,pKd,"APBA1_1, Q02410; [3]",below the threshold
same,pKd,"MAGI1_1, Q96QZ7; [3]",3.62
same,pKd,"NHERF2_2, Q15599; [3]",4.89
same,pKd,"GRIP2_5, Q9C0E4; [3]",below the threshold
same,pKd,"PDZD2_2, O15018; [3]",4.42
same,pKd,"NHERF3_1, Q5T2W1; [3]",4.43
same,pKd,"PICK1, Q9NRD5; [3]",below the threshold
same,pKd,"MAGI2_3, Q86UL8; [3]",below the threshold
same,pKd,"IL16_1, Q14005; [3]",below the threshold
same,pKd,"MPDZ_10, O75970; [3]",below the threshold
same,pKd,"MAST2, Q6P0Q8; [3]",5.64
same,pKd,"ARHGAP21, Q5T5U3; [3]",5.01
same,pKd,"APBA1_2, Q02410; [3]",below the threshold
same,pKd,"PARD3_3, Q8TEW0; [3]",4.53
same,pKd,"GRID2IP_2, A4D2P6; [3]",3.72
same,pKd,"MPP7, Q5T2T1; [3]",below the threshold

# Source: PMC9482650, “Quantitative fragmentomics allow affinity mapping of interactomes” (Nature Communications, 2022)
